Data as given in patent publication US20160032014A1 (Amgen, published 2016).
Numbering of substitutions follows the chain as printed.

B1: 20D12 (antibody, human IgG2, lambda, V domains shown)
VH: QVQLQQWGAGLLKPSETLSLTCAVSGGSFRAYYWNWIRQPPGKGLEWIGEINHSGRTDYNPSLKSRVTISVDTSKNQFSLKLSSVTAADTAVYYCARGQLVPFDYWGQGTLVTVSS
VL: not shown
notes: tested as hybridoma supernatant
B2: 19A12 (antibody, human IgG2, kappa, V domains shown)
VH: QVQLVESGGGVVQPGRSLRLSCAASGFTFSSYGMHWVRQAPGKGLEWVAVIWYDGSNKYYADSVKGRFTISRDNSKNTLYLQMNSLRAEDTAVYYCVRDRGLDWGQGTLVTVSS
VL: not shown
notes: as for B1
B3: 25B5 (antibody, human IgG2, lambda, V domains shown)
VH: QIQLVQSGAEVKKPGASVKVSCKASGYTLTSYGISWVRQAPGQGLEWMGWISFYNGNTNYAQKVQGRVTMTTDTSTSTVYMELRSLRSDDTAVYFCARGYGMDVWGQGTTVTVSS
VL: QSALTQPASVSGSPGQSITISCTGTSSDVGGYNSVSWYQQHPGKPPKLMIYEVSNRPSGISNRFSGSKSGNTASLTISGLQAEDEADYFCSSYTSTSMVFGGGTKLAVLR
notes: as for B1
B4: SS-15005 (antibody, IgG2, V domains shown)
VH: EVQLLESGGGLVQPGGSLRLSCAASGFTFSSYAMNWVRQAPGKGLEWVSTISGSGGNTYYADSVKGRFTISRDNSKNTLYLQMNSLRAEDTAVYYCAKKFVLMVYAMLDYWGQGTLVTVSS
VL: DIQMTQSPSSLSASVGDRVTITCRASQSISIYLNWYQQKPGKAPYLLIYAAASLQSGVPSRFSGSGSGTDFTLTISSLQPEDFATYYCQQSYSAPITFGQGTRLEIKR
notes: also called 25G4
B5: SS-15139 (antibody, V domains shown)
VH: EVQLVESGGGLVKPGGSLRLSCAASGFTFSSYSMNWVRQAPGKGLEWVSSISSSSSYISYAHSVKGRFTISRDNAKNSLYLQMNSLRAEDTAVYFCARDYDFHSAHYDAFDVWGQGTMVTVSS
VL: ESVLTQPPSVSGAPGQRVTISCTGSSSNIGAGYDVHWYQQLPGTAPKLLISGNSNRPSGVPDRFSGSKSGTSASLAITGLQAEDEADYYCQSYDSSLSGSVFGGGTKLTVLG
notes: 31H4 His variant: HC 72(62), 132(106), parental(113H)
B6: 13G9 (antibody, human IgG2, lambda, V domains shown)
VH: QVQLVQSGAEVTKPGASVKVSCKASGYTFTSYGISWVRQAPGQGLEWMGWISVYKGNTNYAQKLQGRVTMTTDTSTSTAYMELRSLRSDDTAVYYCARNYQIFSFDYWGQGTLVTVSS
VL: B5 VL with E1Q, S26R, H36N, S51Y, A76V, S96N
notes: as for B1
B7: SS-15141 (antibody, V domains shown)
VH: B5 VH with H62D, S63H
VL: B5 VL
notes: 31H4 His variant: HC 73(63), 132(106), parental(113H)

Tests used:
[1] = target: T1, human PCSK9 (self-cleaved, mature, secreted PCSK9 comprising amino acids 31 to 692 of SEQ ID NO: 2) (human, UniProt Q8NBP7 31-692, biotinylated in the ELISAs); test: ELISA pH 7.4, sup 1:125, expt 2
T1 construct: Limits 31-692 are stated for the immunogen; the assays only say human PCSK9; also called huPCSK9; rhu PCSK9

[2] = target: T1, human PCSK9 (self-cleaved, mature, …); test: ELISA, supernatant on captured biotin-PCSK9, early primary screen
[3] = target: T1, human PCSK9 (self-cleaved, mature, …); test: ELISA pH 7.4, sup 1:625, expt 1
[4] = target: T2, human D374Y PCSK9 (human, UniProt Q8NBP7 31-692, limits assumed, biotinylated in the blocking ELISA); test: ELISA, blocking of biotin-D374Y PCSK9 binding to LDLR, expt. #1
T2 construct: also called D374Y PCSK9 mutant; biotinylated human D374Y PCSK9

[5] = target: T1, human PCSK9 (self-cleaved, mature, …); test: ELISA pH 6, sup 1:125, expt 1
[6] = target: T1, human PCSK9 (self-cleaved, mature, …); test: ELISA, supernatant on captured biotin-PCSK9, late primary screen
[7] = target: T1, human PCSK9 (self-cleaved, mature, …); test: ELISA pH 7.4, sup 1:625, expt 2
[8] = target: T1, human PCSK9 (self-cleaved, mature, …); test: ELISA pH 6, sup 1:125, expt 2
[9] = target: T1, human PCSK9 (self-cleaved, mature, …); test: ELISA, sup 1:125, expt 1
[10] = target: T2, human D374Y PCSK9; test: ELISA, blocking of biotin-D374Y PCSK9 binding to LDLR, expt. #2
[11] = target: T1, human PCSK9 (self-cleaved, mature, …); test: ELISA pH 7.4, sup 1:125, expt 1
[12] = target: T1, human PCSK9 (self-cleaved, mature, …); test: ELISA, sup 1:125, expt 2
[13] = target: T1, human PCSK9 (self-cleaved, mature, …); test: ELISA pH 6, sup 1:625, expt 1
[14] = target: T1, human PCSK9 (self-cleaved, mature, …); test: ELISA pH 6, sup 1:625, expt 2
[15] = target: T1, human PCSK9 (self-cleaved, mature, …); test: ELISA, sup 1:625, expt 1
[16] = target: T1, human PCSK9 (self-cleaved, mature, …); test: ELISA, sup 1:625, expt 2
[17] = target: T1, human PCSK9 (self-cleaved, mature, …); test: solution equilibrium
[18] = target: T1, human PCSK9 (self-cleaved, mature, …); test: solution equilibrium, BIAcore, pH 5.5
[19] = target: T1, human PCSK9 (self-cleaved, mature, …); test: solution equilibrium, KinExA or BIAcore, pH 7.4
[20] = target: T1, human PCSK9 (self-cleaved, mature, …); test: SPR pH 5.5
[21] = target: T1, human PCSK9 (self-cleaved, mature, …); test: SPR pH 7.4;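 note: antibodies captured as ligand on the sensor surface, five analyte concentrations injected with buffer blanks, double-referenced data fit to a 1:1 binding model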

OD 450 nm [1]	OD 450 nm [2]	OD 450 nm [3]	% Inhibition [4]	OD 450 nm [5]	OD 450 nm [6]	OD 450 nm [7]	OD 450 nm [8]	OD diff (pH 7.4 - pH 6) [9]	% Inhibition [10]	OD 450 nm [11]	OD diff (pH 7.4 - pH 6) [12]	OD 450 nm [13]	OD 450 nm [14]	OD diff (pH 7.4 - pH 6) [15]	OD diff (pH 7.4 - pH 6) [16]	other results	Binder
4.1 OD	6 OD	2.5 OD	91%	3 OD	4.2 OD	1.5 OD	2.8 OD	1.2 OD	92%	4.2 OD	1.3 OD	0.9 OD	0.8 OD	1.6 OD	0.7 OD		B1
3.9 OD	3.7 OD	3 OD	89%	2.9 OD	3.8 OD	2.5 OD	2.5 OD	0.7 OD	91%	3.6 OD	1.4 OD	1.9 OD	1.8 OD	1.2 OD	0.7 OD		B2
2.6 OD	6 OD	0.8 OD	94%	1.3 OD	4.3 OD	0.5 OD	1.7 OD	0.8 OD	93%	2.1 OD	0.9 OD	0.5 OD	0.5 OD	0.3 OD	0 OD		B3
																pH 5.5/7.4 KD ratio [17]: 1.9; Kd [18]: 0.15 nM; Kd [19]: 0.078 nM	B4
																estimated complex half life pH 5.5 [20]: 100 s; Kd [21]: 0.19 nM; koff [21]: 0.000248 s⁻¹; kon [21]: 1.31e+06 M⁻¹ s⁻¹	B5
6 OD	3.8 OD	3.4 OD	62%	3.8 OD	3.6 OD	1 OD	4.2 OD	2.2 OD	77%	6 OD	1.8 OD	2 OD	1.6 OD	1.5 OD	-0.6 OD		B6
																estimated complex half life pH 5.5 [20]: 100 s; Kd [21]: 0.185 nM; koff [21]: 0.000255 s⁻¹; kon [21]: 1.38e+06 M⁻¹ s⁻¹	B7
